Test results reported in the supplement of paper PMC12764529.
± gives the half width of the 95% confidence interval.

Assays:
[1] = folding stability dG unfold from trypsin proteolysis; higher = more stable
Outline: (§1)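 K50 was inferred by Bayesian fitting of sequencing counts obtained after protease digestion of designed mini-proteins. Unfolding free energy was derived by comparison with a sequence-predicted unfolded-state K50 and a shared folded-state K50, for each protease or both combined. The mini-proteins were under 80 residues, had no cysteine, were carried in a PA-tagged cDNA display construct, and were kept only if AlphaFold2 dimer inter-PAE exceeded 15.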

[2] = folding stability dG unfold (combined trypsin and chymotrypsin); higher = more stable
Outline: as §1

[3] = folding stability dG unfold from chymotrypsin proteolysis; higher = more stable
Outline: as §1

| Sequence | folding stability dG unfold [1] [kcal/mol] | folding stability dG unfold [2] [kcal/mol] | folding stability dG unfold [3] [kcal/mol] |
| --- | --- | --- | --- |
| SAGGSSPASVRTSQTTVTDPATGRTRSVTVTTLPDGTTVSTFDSPGGSLVTTTTTPDGTTTTVTADSAGGSA [r2_109_JUSTAS] | -0.0855 ± 0.13 | 1.05 ± 0.066 | 1.38 ± 0.022 |
| SAGGSSPEELAEKAINEAMEKFGFKEISEIKIQKEDDGVRITIRMPNNGYTIEIDYEDGKITEIQPWSAGGS [r16_171_TrROS] | 1.53 ± 0.051 | 1.1 ± 0.083 | 0.23 ± 0.2 |
| SAGGSSPLLLTSSPTPLTLPDGGTVTLTTTRVPGDNADVVTITTTPPGTGTTTVTTLPASTAAATLSAGGSA [r2_366_JUSTAS] | 1.47 ± 0.034 | 1.15 ± 0.068 | 0.603 ± 0.12 |
| SAGGSSPLLSPVTLTREVPASEPMAPEEVEAFAAAVAAEVAAAGMTVDFSVERHPDREVLTVTVTVASSAGG [r13_442_JUSTAS] | -0.372 ± 0.1 | 0.373 ± 0.056 | 0.678 ± 0.046 |
| SAGGSSPWLERALEEARELMKNDPPGKEVEAKVKVPYPTPDGQQQPMKFRIRMTYKNNKIKEIEITSAGGSA [r2_173_TrROS] | 0.91 ± 0.11 | 0.823 ± 0.17 | 0.518 ± 0.25 |
| SAGGSSSLSGLKNVTEEPRLAPDSDEEEVLITYENGYLERREPGVLEFYDPENGKVLSKKNVPYHHSAGGSA [r2_374_JUSTAS] | -0.806 ± 0.35 | -0.326 ± 0.3 | -0.0765 ± 0.3 |
| SAGGSSSSMVVVTLTFPPDVSPEEVIEKIAATPGVGAQPISYDPATGTFTIRVGSTDPKAVEEVLGSAGGSA [r2_305_JUSTAS] | 0.878 ± 0.022 | 0.748 ± 0.074 | 0.562 ± 0.17 |
| SAGGSSVLINHTKTFSSEEEAEKEAEELKEKAKKEGFDEVKVEISKDPSGGTYTLKVTIKKKLPPDLKSAGG [r19_92_JUSTAS] | 1.96 ± 0.078 | 2.87 ± 0.26 | 3.21 ± 0.072 |
| SAGGSSVTTTVSEETLPDGLRLLTTTTTTTTVPGKPDLRITTVTTTALDPVTGETTAVGTSTTVVAPSAGGS [r8_65_JUSTAS] | 0.311 ± 0.038 | 0.63 ± 0.086 | 0.796 ± 0.027 |
| SAGGSSYSVAQSPGPARLYSVPQPDGRVVEVDVEELPGGLLRVRVPDDPVPRLFPASLSLADIVSLSAGGSA [r2_338_JUSTAS] | 0.644 ± 0.02 | 0.866 ± 0.032 | 0.933 ± 0.046 |
| SAGGSTIENPNGWRIEIDIIPIKVVYRKDPNGKPKEPVAPPVWIIHIKIEFPDKNGEKKEATFMLFSAGGSA [r2_218_TrROS] | 2.62 ± 0.069 | 4.06 ± 0.13 | 4.61 ± 0.056 |
| SAGGSTLEEIKAAVIKAAEAGEKEAEIEAPLPDGGKLRILKGGVIEFIPEDGVPKRLKISVSEIKVSAGGSA [r2_97_TrMRF] | -1.2 ± 0.75 | 0.0476 ± 0.26 | 0.451 ± 0.36 |
| SAGGSTVAKKTTEKDPNSDTTTVTITFPETGVKLTVTVPPGGETTVTLNNGSPPTTLTLPLSVLKLLSAGGS [r8_238_JUSTAS] | 0.192 ± 0.077 | 0.612 ± 0.077 | 0.87 ± 0.067 |
| SAGGSVDVSYDPSTGVVTVTIPSPTGSIGEEEVERVARELKEKYPNVTVSFTPSPGPAVTVTITIPGGSAGG [r13_291_JUSTAS] | 1.71 ± 0.07 | 2.08 ± 0.074 | 2.24 ± 0.042 |
| SAGGSVEEIAERLAKELAPPDERVEVEVEEIVTDPVVGKIKEVKIKATIYPPDGTTRTVEYTIPYDELSAGG [r13_215_JUSTAS] | 0.407 ± 0.029 | 0.612 ± 0.056 | 0.704 ± 0.028 |
| SAGGSVEVTKTESKGPGGTVTVEALKTVTKFDEKGNPVKEEEVRITRTETYDPNTGKVTTTTTVEGSAGGSA [r2_220_JUSTAS] | -0.0891 ± 0.061 | 0.487 ± 0.067 | 0.709 ± 0.018 |
| SAGGSVFESEKDLRVEVYKIKVGTTLGKEKNGKPKKPKFKEKEVLVVKVEVPLEDGTTLSAEFTFGSAGGSA [r2_218_TrMRF] | 1.25 ± 0.13 | 2.52 ± 0.26 | 3.24 ± 0.073 |
| SAGGSVKQIALRIARDMGYPNVKVEEIPIEKTPNGWVQIPITVEHPKDGKPIGPFQIHIRPGDPIVSAGGSA [r2_137_TrROS] | 1.17 ± 0.24 | 0.731 ± 0.29 | 0.602 ± 0.27 |
| SAGGSVPERAKVVTLVLRFEEPESLGIPLLERLLRELGFPDAVLGEVRIEPLPDGSVVAVVPLLVPSAGGSA [r2_346_TrMRF] | 2.42 ± 0.041 | 2.91 ± 0.059 | 3.196 ± 0.02 |
| SAGGSVTLSAEFTLPDGSRVRLTVEVLPDGTLRVSAEVEAVPLVPPVRVSRLPDGSLVSDPLGVPLVLSAGG [r13_151_TrMRF] | 1.82 ± 0.046 | 1.57 ± 0.15 | 1.31 ± 0.11 |
| SAGGSWRVSVQFPDGKKIKIPEEPIQKIIQEYGIPPDPGDPERMVERIANRIADKYGYPVKNIEIDSAGGSA [r2_83_TrROS] | -0.377 ± 0.42 | 0.0663 ± 0.15 | 0.385 ± 0.13 |

| Sequence | folding stability dG unfold [1] [kcal/mol] | folding stability dG unfold [2] [kcal/mol] | folding stability dG unfold [3] [kcal/mol] |
| --- | --- | --- | --- |
| SAGGSWTIDIDPEKVKEVEHKRNPNGMNEHRLELPNKNGKKREVKIPMGMKSPEDALDEIRELLGKSAGGSA [r2_347_TrROS] | 0.167 ± 0.25 | 0.331 ± 0.39 | 0.663 ± 0.32 |
| SAGGTAEEIVEALKEAGIPVLSIEPNSDGTYTITVGGPDGTPFTIEISSANPADLAALKEAIPEEVSSAGGS [r16_821_TrMRF] | 3.35 ± 0.22 | 3.86 ± 0.12 | 4.01 ± 0.072 |
| SAGGTIFIPWEEAEEFIENAFENGEDIEIEFFLDDGWWYKFTITGPDIDLRVVEVVPMPPPPEDPGKKSAGG [r13_839_TrROS] | 0.836 ± 0.056 | 2.34 ± 0.11 | 2.82 ± 0.042 |
| SAGGTIYIFIPGLTAEEILKFIAEEFPGHENVTIFWPKGYYVKITVDNGNIKIDKVQPMRPMPPGDPSAGGS [r8_225_TrROS] | 2.52 ± 0.073 | 2.99 ± 0.084 | 3.31 ± 0.026 |
| SAGGTKTINIKNMPPNDPERMVRTARHLLKELKQKGPGKTITIHMDNPWAREVAEYLKKEGIPIEVHSAGGS [r16_450_TrROS] | 0.581 ± 0.17 | 0.947 ± 0.14 | 1.09 ± 0.15 |
| SAGGTLKVTEEEVSESEFESPGLPLRRTTTTYTLVDPVTGKPVPTSKKVTVETLETPEGRVLETVVTSSAGG [r13_24_JUSTAS] | -0.45 ± 0.24 | -0.0697 ± 0.13 | 0.0434 ± 0.14 |
| SAGGTRTIWFPVDDIREALPPDNIKKVEVEPVGPENNWYKVTIEFPDYKIEIQYYPEEPGMFMVTITDSAGG [r13_942_TrROS] | 0.791 ± 0.085 | 2.13 ± 0.29 | 2.71 ± 0.043 |
| SAGGTVEEIKEKLEEAGWEVVKVEKKEDGSITVTVRRKDGKELKIEIDLKNEEVRKALAELLPEEELSAGGS [r16_821_TrROS_Hall] | 2.42 ± 0.19 | 2.95 ± 0.15 | 3.22 ± 0.13 |
| SAGGTVTLTLELTVKVKRKDGKTETKKVTLTITVEVKEGETVYTPDGKKIKPGKSAEELAKELLKKLSAGGS [r16_440_TrROS_Hall] | 1.17 ± 0.089 | 1.27 ± 0.32 | 1.28 ± 0.12 |
| SAGGTVTTEEVDDATYITVTKPSGETLTITAPALPDDTYLVTVYDPKTGKSTTKTVSSLDEAIKLLGSAGGS [r8_230_JUSTAS] | 2.2 ± 0.076 | 2.08 ± 0.098 | 1.83 ± 0.019 |
| SAGGVIMIPADEILDMIEQNPDEPKTIFARPNNRMVMFTLKIDPDKPDNIEIDNVWRYDPNGKGEHLPSAGG [r13_481_TrROS] | -0.526 ± 0.47 | -0.365 ± 0.22 | -0.475 ± 0.31 |
| SAGGVITAEQLRDLVKTLPPDYTIRVKVYYSTSTEEYTITPDNPIKFPPNAPTETITRIEVVEISPDSAGGS [r16_97_TrMRF] | 3.87 ± 0.088 | 4.33 ± 0.068 | 4.43 ± 0.045 |
| SAGGVLPSDPVTVTVTIPVPAANAETDGRLPPQPQTINLEIGGPSEEAIRALLEALFPPGTEYEILLSAGGS [r16_282_JUSTAS] | 1.77 ± 0.064 | 1.32 ± 0.06 | 0.691 ± 0.034 |
| SAGGVPVPPEVEYPISPEAVELAEKLAPELGAKNFKVTVVSVEPGYITVEITLPDTGKTVTVTIPLGSAGGS [r16_281_JUSTAS] | 1.5 ± 0.041 | 1.82 ± 0.053 | 1.987 ± 0.015 |
| SAGGVRYRNPLTGVEIPPDATEEERAAIARAVAKPVVLPVTVPVYVEEGDVVVPVERTFHVPLGPDGSAGGS [r16_387_TrMRF] | 0.22 ± 0.085 | 0.206 ± 0.083 | 0.0948 ± 0.12 |
| SAGGVTVSLSDPLSGNITTVPVAPNSTVTVTTSASLGGPNYTITTTVTVTLNGSTPVFTITSTVTPLSSAGG [r19_331_JUSTAS] | 3.08 ± 0.16 | 3.41 ± 0.17 | 3.54 ± 0.071 |
| SAGGVVEVEVPDLSLEEALERVREEYPDVPEFTLTLPSGERVEFRVEGDRVEVVRREPLGPRPPELESAGGS [r8_225_JUSTAS] | 1.63 ± 0.1 | 1.54 ± 0.066 | 1.51 ± 0.029 |
| SAGGVVTFLPGNLIKTTYFDPEKGTRTETLYYVPPDGTTTKLKTTVTPIPPTPLERPFFFGPDDVPVLSAGG [r13_646_JUSTAS] | 0.517 ± 0.059 | 0.474 ± 0.15 | 0.306 ± 0.21 |
| SAGGVVYYATFTIYDPKRKLPNGELAYEETPIYKKFDPKEIEKFIKELKDKLKKEGRKIKAEITKVLSAGGS [r8_10_JUSTAS] | 1.28 ± 0.15 | 1.45 ± 0.4 | 1.77 ± 0.29 |
| SAGGVWIEITFLMPAEQLLNFIKNLAEEFGYQVNIDVKIQPYPNGPMVTHEIEIKPLPPKVPEEDQESAGGS [r16_262_TrROS] | 2.5 ± 0.13 | 3.6 ± 0.16 | 3.99 ± 0.1 |
| SAGGWFTWDIPVKADDPKEAVDYAKEQIKNIMREHHPGMPPGMKIDDIKVEPPPNGWYWVKITIEIDPPSAG [r5_320_TrROS] | 1.83 ± 0.083 | 2.29 ± 0.15 | 2.59 ± 0.083 |
